The source of these data is PMC4702109, “Osmotic stress induces the phosphorylation of WNK4 Ser575 via the p38MAPK-MK pathway” (Scientific Reports, 2016).

Where no end group is shown, it is not given here. [ ]: non-standard residue; d: D form. pS = N[C@@H](COP(=O)(O)O)C(=O)O

The target of this test is T1, GST-hKLHL3 (290–587) (human, UniProt Q9UH77 290-587).
T1 construct: Kelch-like protein 3 (KLHL3), human, residues 290-587; End of the tag read from the construct's name; also called GST-KLHL3 (290–587); GST-KLHL3; source: E. coli BL21, purified (glutathione-Sepharose column, eluted with glutathione); not shown: GST, N-terminal, kept
T1 sequence (looked up): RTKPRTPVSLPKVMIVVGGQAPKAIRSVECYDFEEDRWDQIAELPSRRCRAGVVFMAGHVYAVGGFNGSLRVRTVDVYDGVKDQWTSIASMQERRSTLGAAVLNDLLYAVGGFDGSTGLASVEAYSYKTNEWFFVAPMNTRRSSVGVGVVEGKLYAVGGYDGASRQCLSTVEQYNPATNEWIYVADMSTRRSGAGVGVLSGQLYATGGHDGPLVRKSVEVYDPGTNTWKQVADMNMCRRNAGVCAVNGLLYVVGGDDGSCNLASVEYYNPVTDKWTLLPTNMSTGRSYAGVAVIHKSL
Description: pull-down; FLAG-tagged synthetic WNK4 (557–580) peptides (1 μg) held on anti-FLAG antibody beads; GST-hKLHL3 (290–587) incubated 6 hours, washed with IP lysis buffer; immunoblot; two amounts of GST-KLHL3 (3-fold apart). The settings on record: both partners purified.

B1: WNK4 (557–580)-pS575 peptide (peptide, UniProt Q96J92 557-580, looked up)
peptide: EPEEPEADQHQPFLFRHA[pS]YSSTT
modifications: also: FLAG tag, position not given here
notes: Held on anti-FLAG antibody beads; also called peptide phosphorylated at Ser575; source: synthetic peptide (bought: Eurofins Genomics)
With B1, the binding result is reported as “binds”.

B2: WNK4 (557–580)-WT peptide (peptide, UniProt Q96J92 557-580, looked up)
peptide: EPEEPEADQHQPFLFRHASYSSTT
notes: Held on anti-FLAG antibody beads; also called unphosphorylated peptide; source: synthetic peptide (bought: Eurofins Genomics)
On to B2, for which the binding result is “binds”.
